Assay [1] has as its target HIV-1 MN-8 envelope (HIV-1 group M).
For assay [2], the target named is SIVcpz GAB-2 62 fl envelope (SIVcpz (P.t.t)).
Assay [3] addresses HIV-1 NL4.3 envelope (HIV-1 group M).
Assay [4] addresses SIVcpz GAB-1 fl envelope (SIVcpz (P.t.t)) (UniProt P17281).
Assay [5] has as its target HIV-1 WEAU 16-8M envelope (HIV-1 group M).
Assay [6] addresses HIV-1 SUMA d736-73 envelope (HIV-1 group M).
The target in assay [7] is HIV-1 MN-25 envelope (HIV-1 group M).
The target in assay [8] is HIV-1 SUMA d736-68 envelope (HIV-1 group M).
A further assay deals with [Phe^23]M33. As to the kind of experiment: SPR. For orientation: In SPR one partner is held on a chip, and binding of the other changes the refractive index at the surface.
Another assay has as its target CD4M47. The assay can be described thus: SPR.
A further assay addresses [Phe^23]M47. As to the kind of experiment: SPR.
A further assay deals with CD4M33. The assay can be described thus: SPR.

SIVcpz GAB-1 fl envelope (SIVcpz (P.t.t)), sequence (P17281 32-854): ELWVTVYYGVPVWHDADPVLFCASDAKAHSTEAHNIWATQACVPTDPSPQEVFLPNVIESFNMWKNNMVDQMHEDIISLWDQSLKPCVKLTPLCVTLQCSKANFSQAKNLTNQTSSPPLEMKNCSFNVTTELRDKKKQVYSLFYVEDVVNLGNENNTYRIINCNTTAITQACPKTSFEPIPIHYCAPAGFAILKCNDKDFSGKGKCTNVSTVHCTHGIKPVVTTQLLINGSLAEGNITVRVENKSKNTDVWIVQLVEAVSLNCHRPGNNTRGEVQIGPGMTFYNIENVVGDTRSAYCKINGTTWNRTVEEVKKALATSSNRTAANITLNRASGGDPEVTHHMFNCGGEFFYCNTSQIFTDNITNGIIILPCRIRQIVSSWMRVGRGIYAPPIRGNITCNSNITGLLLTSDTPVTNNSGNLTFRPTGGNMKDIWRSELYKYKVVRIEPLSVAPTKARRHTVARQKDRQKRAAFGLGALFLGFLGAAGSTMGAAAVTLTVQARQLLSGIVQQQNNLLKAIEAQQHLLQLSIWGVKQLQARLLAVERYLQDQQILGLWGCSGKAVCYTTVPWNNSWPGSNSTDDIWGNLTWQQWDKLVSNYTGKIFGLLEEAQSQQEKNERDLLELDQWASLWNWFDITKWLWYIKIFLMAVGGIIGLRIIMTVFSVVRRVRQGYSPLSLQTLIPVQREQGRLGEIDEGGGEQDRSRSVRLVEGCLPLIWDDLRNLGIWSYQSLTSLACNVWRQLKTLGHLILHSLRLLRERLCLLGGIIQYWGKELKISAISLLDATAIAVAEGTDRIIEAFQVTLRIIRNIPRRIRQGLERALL

For CD4M33 (designed binder), the IC50 of neutralisation, HIV-entry assay on JC53BL-13 indicator cells in assay [1] came out at 34 nM; in [2], 400 nM; in assay [3] it was 5 nM; in [4], 340 nM; in assay [5] it was 85 nM; in assay [6], 480 nM. Also, the IC50 of neutralisation, HIV-entry assay on JC53BL-13 indicator cells in assay [7] is 350 nM; in assay [8], 4 nM.

Regarding CD4M47 (designed binder), the IC50 of neutralisation, HIV-entry assay on JC53BL-13 indicator cells in [1] came to 11 nM; in [2], 230 nM; in assay [3] it was 3 nM; in assay [4], 150 nM; in assay [5] it was 64 nM; in assay [6] it was 370 nM. For the same substance, the figures for the IC50 of neutralisation, HIV-entry assay on JC53BL-13 indicator cells in assay [7] and in assay [8] were 150 nM and 3 nM, respectively.

One may read the Kd as a measure of binding affinity in units of concentration. High values mean weaker binding, low ones tighter binding. By koff is commonly meant a measure of how fast the partners let go of each other. Read a high koff as a short-lived complex. The term kon denotes the rate constant with which the complex forms. High values mean faster complex formation, low ones slower complex formation. In the case of “YU2 gp120 (from UniProt P35961 32-498) (natural protein)”, the Kd in assay [Phe^23]M33 stood at 35.1 nM; with CD4M47, 2.12 nM; in assay [Phe^23]M47 it was 3.87 nM; with CD4M33, 12.5 nM. Further, the koff in assay [Phe^23]M33 came to 0.00475 s⁻¹; with CD4M47 it was 0.000741 s⁻¹; in [Phe^23]M47, 0.000427 s⁻¹; in the assay with CD4M33, 0.00272 s⁻¹. The kon in assay [Phe^23]M33 was determined as 135000 M⁻¹ s⁻¹; with CD4M47 it was 349000 M⁻¹ s⁻¹; in assay [Phe^23]M47, 110000 M⁻¹ s⁻¹; with CD4M33, 218000 M⁻¹ s⁻¹.

Take [Phe^23]M33 (designed binder): the IC50 of neutralisation, HIV-entry assay on JC53BL-13 indicator cells amounted to 85 nM in assay [1]; 1000 nM in assay [2]; 13 nM in [3]; 350 nM in assay [4]; 130 nM in assay [5]; 8500 nM in [6]. This substance also came in with an IC50 of neutralisation, HIV-entry assay on JC53BL-13 indicator cells in [7] of 3600 nM.

For [Phe^23]M47 (designed binder), the IC50 of neutralisation, HIV-entry assay on JC53BL-13 indicator cells in assay [1] amounted to 15 nM; in assay [2] it was 290 nM; in [3], 4 nM; in assay [4], 69 nM; in assay [5] it was 47 nM; in assay [6], 950 nM. Further, the IC50 of neutralisation, HIV-entry assay on JC53BL-13 indicator cells in assay [7] stood at 320 nM; in assay [8] it was 7 nM.
